Results from patent publication US20170355774A1 (Regeneron, published 2017).

Key:
[1] = target: T1, human GITR (amino acids M1-V241, NCBI Accession #NP_004186.1) expressed on cells (human, UniProt Q9Y5U5 26-241); experiment: cell-based or functional assay
T1 sequence: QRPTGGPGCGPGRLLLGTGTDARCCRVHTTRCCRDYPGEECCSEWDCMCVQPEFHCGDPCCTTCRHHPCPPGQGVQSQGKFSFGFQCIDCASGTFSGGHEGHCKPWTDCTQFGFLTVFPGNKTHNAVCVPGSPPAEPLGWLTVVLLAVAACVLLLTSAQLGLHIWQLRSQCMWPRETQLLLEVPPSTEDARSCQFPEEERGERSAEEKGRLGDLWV

[2] = target: T1, human GITR (amino acids M1-V241, NCBI …); experiment: cell-based or functional assay; remark: listed apart in the source
[3] = target: T1, human GITR (amino acids M1-V241, NCBI …); experiment: cell-based or functional assay; remark: listed apart in the source
[4] = target: T1, human GITR (amino acids M1-V241, NCBI …); experiment: cell-based or functional assay; remark: listed apart in the source
mfGITR.mmh = target: T2, mfGITR.mmh (Macaca fasicularis); experiment: SPR 37C, mAb capture
T2 construct: soluble monomeric construct; also called Macaca fasicularis (mf) GITR.mmh; cynomolgus GITR protein
T2 chain: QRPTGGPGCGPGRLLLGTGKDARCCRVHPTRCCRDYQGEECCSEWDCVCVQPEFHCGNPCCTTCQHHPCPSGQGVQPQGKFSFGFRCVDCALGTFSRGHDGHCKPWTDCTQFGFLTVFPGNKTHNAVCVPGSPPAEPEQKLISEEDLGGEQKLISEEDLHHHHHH

hGITR.mmh = target: T3, hGITR.mmh (human); experiment: SPR 37C, mAb capture
T3 construct: soluble monomeric construct; also called human (h) GITR.mmh; monomeric human GITR
T3 chain: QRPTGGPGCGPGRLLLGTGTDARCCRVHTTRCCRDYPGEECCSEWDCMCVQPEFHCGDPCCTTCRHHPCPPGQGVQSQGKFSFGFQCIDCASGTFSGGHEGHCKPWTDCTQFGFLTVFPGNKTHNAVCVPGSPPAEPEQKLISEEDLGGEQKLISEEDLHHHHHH

hGITR.mFc = target: T4, hGITR.mFc (human); experiment: SPR 37C, mAb capture
T4 construct: soluble dimeric construct with mouse Fc; also called dimeric human GITR
T4 chain: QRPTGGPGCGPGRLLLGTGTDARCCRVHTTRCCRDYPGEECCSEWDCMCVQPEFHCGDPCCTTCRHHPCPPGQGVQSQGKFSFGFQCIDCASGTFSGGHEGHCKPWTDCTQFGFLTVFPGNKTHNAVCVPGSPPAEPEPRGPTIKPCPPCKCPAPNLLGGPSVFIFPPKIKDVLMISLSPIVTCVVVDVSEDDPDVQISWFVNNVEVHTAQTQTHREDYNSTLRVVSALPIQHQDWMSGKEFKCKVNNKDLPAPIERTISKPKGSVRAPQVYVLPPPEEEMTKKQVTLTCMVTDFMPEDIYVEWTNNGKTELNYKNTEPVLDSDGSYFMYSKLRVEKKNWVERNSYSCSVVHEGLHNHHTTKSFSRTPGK

[5] = target: T1, human GITR (amino acids M1-V241, NCBI …); experiment: ECL cell binding, hGITR/HEK293-D9
Outline: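 Cells blocked with 2% BSA, then antibody dilutions from 1.7 pM to 100 nM added 1 h at RT. Bound antibody detected with SULFO-TAG anti-human kappa antibody, electrochemiluminescence read, RLU fitted by four-parameter logistic; signal at 100 nM on hGITR cells versus parental cells also recorded.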

[6] = target: T1, human GITR (amino acids M1-V241, NCBI …); experiment: cell-based or functional assay; remark: listed apart in the source
[7] = target: T1, human GITR (amino acids M1-V241, NCBI …); experiment: cell-based or functional assay; remark: listed apart in the source
[8] = target: T1, human GITR (amino acids M1-V241, NCBI …); experiment: cell-based or functional assay; remark: listed apart in the source

B1: H4H14475P (antibody, human IgG4, V domains shown)
VH: QVQLVESGGGVVQPGRSLRLSCAASGTIFSTHGMHWVRQAPGKGLEWVAVISYDGNKKYYAGSVKGRFTISRDNSKNTLYLQMNDVRSEDTAVYHCTTDITGITDYWGQGTLVTVSS
VL: DIQMTQSPSSLSASVGDRVTITCRASQGIGNDLGWYQQKLGKAPKRLIYAASSLESGVPSRFSGSGSGTEFILTISSLQAEDFATYYCLQHNGFPTFGQGTKVEIK
notes: human IgG4 (H4H)
% Activation, NF-kB-Luc, non-anchored [1]: 70%
% Blocking, NF-kB-Luc, non-anchored [1]: -2%
EC50, hGITR activation, NF-kB-Luc, non-anchored [1]: 1 nM
EC50, hGITR activation, NF-kB-Luc, FcgR anchored [2]: 0.04 nM
Fold Activation over basal signal, NF-kB-Luc, FcgR anchored [2]: 8 fold
IC50, blocking of hGITRL stimulation, NF-kB-Luc, FcgR anchored [2]: 0.2 nM
fold activation, T-cell proliferation, plate-bound Ab 10.6 nM, donor 1 [3]: 0 fold
fold activation, T-cell proliferation, plate-bound Ab 10.6 nM, donor 2 [3]: 2 fold
fold activation, T-cell proliferation, plate-bound Ab 10.6 nM, donor 3 [3]: 2 fold
fold activation, T-cell proliferation, plate-bound Ab 10.6 nM, donor 4 [3]: 2 fold
fold activation, T-cell proliferation, plate-bound Ab 10.6 nM, donor 5 [3]: 2 fold
fold activation, T-cell proliferation, plate-bound Ab 10.6 nM, donor 6 [3]: 12 fold
fold activation, T-cell proliferation, plate-bound Ab 10.6 nM, donor 7 [3]: 1 fold
fold activation, T-cell proliferation, plate-bound Ab 10.6 nM, donor 8 [3]: 0 fold
fold activation, T-cell proliferation, plate-bound Ab 10.6 nM, mean [3]: 3 fold
fold activation, T-cell proliferation, 33 nM, FcgR anchored, donor 1 [4]: 1 fold
fold activation, T-cell proliferation, 33 nM, FcgR anchored, donor 2 [4]: 1.3 fold
fold activation, T-cell proliferation, 33 nM, FcgR anchored, donor 3 [4]: 1.3 fold
fold activation, T-cell proliferation, 33 nM, FcgR anchored, donor 4 [4]: 1.6 fold
fold activation, T-cell proliferation, 33 nM, FcgR anchored, donor 5 [4]: 1.5 fold
fold activation, T-cell proliferation, 33 nM, FcgR anchored, mean [4]: 1.3 fold
Kd (mfGITR.mmh): 41.7 nM
koff (mfGITR.mmh): 0.00765 s⁻¹
kon (mfGITR.mmh): 183000 M⁻¹ s⁻¹
t½ (mfGITR.mmh): 1.5 min
Kd (hGITR.mmh): 45.7 nM
koff (hGITR.mmh): 0.014 s⁻¹
kon (hGITR.mmh): 307000 M⁻¹ s⁻¹
t½ (hGITR.mmh): 0.8 min
Kd (hGITR.mFc): 0.847 nM
koff (hGITR.mFc): 0.00135 s⁻¹
kon (hGITR.mFc): 1.6e+06 M⁻¹ s⁻¹
t½ (hGITR.mFc): 8.5 min
Average Signal (RLU) at 100 nM [5]: 7500 RLU
EC50 [5]: 8 nM
fold activation, T-cell proliferation, 22 nM, non-anchored, donor 1 [6]: 0.7 fold
fold activation, T-cell proliferation, 22 nM, non-anchored, donor 2 [6]: 1.1 fold
fold activation, T-cell proliferation, 22 nM, non-anchored, donor 3 [6]: 0.8 fold
fold activation, T-cell proliferation, 22 nM, non-anchored, donor 4 [6]: 0.8 fold
fold activation, T-cell proliferation, 22 nM, non-anchored, mean [6]: 0.9 fold

B2: H4H14536P2 (antibody, human IgG4, V domains shown)
VH: QVQLQESGPGLVKPSETLSLTCIVSGGSISGYFWNWIRQPPGKGLEWIGYIYYSGTTIYNPSLKSRFTISLDTSKNQFSLKLTSVTAADTAVYYCARESYNPSPRYFDHWGQGTLVTVSS
VL: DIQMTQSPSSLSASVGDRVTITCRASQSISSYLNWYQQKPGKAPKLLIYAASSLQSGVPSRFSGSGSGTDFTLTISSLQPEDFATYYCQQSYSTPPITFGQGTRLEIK
notes: human IgG4 (H4H)
% Activation, NF-kB-Luc, non-anchored [1]: 20%
% Blocking, NF-kB-Luc, non-anchored [1]: 90%
EC50, hGITR activation, NF-kB-Luc, non-anchored [1]: 1.1 nM
IC50, blocking of hGITRL stimulation, NF-kB-Luc, non-anchored [1]: 2 nM
EC50, hGITR activation, NF-kB-Luc, FcgR anchored [2]: 0.01 nM
Fold Activation over basal signal, NF-kB-Luc, FcgR anchored [2]: 5 fold
IC50, blocking of hGITRL stimulation, NF-kB-Luc, FcgR anchored [2]: 0.2 nM
fold activation, T-cell proliferation, plate-bound Ab 10.6 nM, donor 1 [3]: 3 fold
fold activation, T-cell proliferation, plate-bound Ab 10.6 nM, donor 2 [3]: 24 fold
fold activation, T-cell proliferation, plate-bound Ab 10.6 nM, donor 3 [3]: 24 fold
fold activation, T-cell proliferation, plate-bound Ab 10.6 nM, donor 4 [3]: 25 fold
fold activation, T-cell proliferation, plate-bound Ab 10.6 nM, donor 5 [3]: 24 fold
fold activation, T-cell proliferation, plate-bound Ab 10.6 nM, donor 6 [3]: 47 fold
fold activation, T-cell proliferation, plate-bound Ab 10.6 nM, donor 7 [3]: 26 fold
fold activation, T-cell proliferation, plate-bound Ab 10.6 nM, donor 8 [3]: 16 fold
fold activation, T-cell proliferation, plate-bound Ab 10.6 nM, mean [3]: 23 fold
fold activation, T-cell proliferation, 33 nM, FcgR anchored, donor 1 [4]: 1.3 fold
fold activation, T-cell proliferation, 33 nM, FcgR anchored, donor 2 [4]: 6.3 fold
fold activation, T-cell proliferation, 33 nM, FcgR anchored, donor 3 [4]: 1.5 fold
fold activation, T-cell proliferation, 33 nM, FcgR anchored, donor 4 [4]: 2.7 fold
fold activation, T-cell proliferation, 33 nM, FcgR anchored, donor 5 [4]: 15.7 fold
fold activation, T-cell proliferation, 33 nM, FcgR anchored, mean [4]: 5.5 fold
EC50, T-cell proliferation, FcgR anchored, donor 1 [7]: 1.2 nM
EC50, T-cell proliferation, FcgR anchored, donor 2 [7]: 0.5 nM
EC50, T-cell proliferation, FcgR anchored, donor 3 [7]: 1.3 nM
EC50, T-cell proliferation, FcgR anchored, donor 4 [7]: 11.2 nM
EC50, T-cell proliferation, FcgR anchored, donor 5 [7]: 1.6 nM
EC50, T-cell proliferation, FcgR anchored, mean [7]: 3.2 nM
EC50, T-cell proliferation, non-anchored, average [8]: 8.3 nM
EC50, T-cell proliferation, non-anchored, donor 1 [8]: 12.2 nM
EC50, T-cell proliferation, non-anchored, donor 2 [8]: 6.4 nM
EC50, T-cell proliferation, non-anchored, donor 3 [8]: 9 nM
EC50, T-cell proliferation, non-anchored, donor 4 [8]: 5.7 nM
Kd (mfGITR.mmh): 142 nM
koff (mfGITR.mmh): 0.0147 s⁻¹
kon (mfGITR.mmh): 104000 M⁻¹ s⁻¹
t½ (mfGITR.mmh): 0.8 min
Kd (hGITR.mmh): 23 nM
koff (hGITR.mmh): 0.00976 s⁻¹
kon (hGITR.mmh): 424000 M⁻¹ s⁻¹
t½ (hGITR.mmh): 1.2 min
Kd (hGITR.mFc): 0.173 nM
koff (hGITR.mFc): 0.000219 s⁻¹
kon (hGITR.mFc): 1.26e+06 M⁻¹ s⁻¹
t½ (hGITR.mFc): 52.7 min
Average Signal (RLU) at 100 nM [5]: 8960 RLU
EC50 [5]: 0.36 nM
fold activation, T-cell proliferation, 22 nM, non-anchored, donor 1 [6]: 6.2 fold
fold activation, T-cell proliferation, 22 nM, non-anchored, donor 2 [6]: 4.2 fold
fold activation, T-cell proliferation, 22 nM, non-anchored, donor 3 [6]: 10.1 fold
fold activation, T-cell proliferation, 22 nM, non-anchored, donor 4 [6]: 23.4 fold
fold activation, T-cell proliferation, 22 nM, non-anchored, mean [6]: 11 fold
